Test system: MS2 coat protein
Test: apparent KD of MS2 coat protein; designed switch direction (-1 OFF switch, 1 ON switch): -1; higher = weaker reporter binding
Summary of the method: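 RNA switches sharing common flanks were transcribed by stalled E. coli RNA polymerase on Illumina chips. A doubling series of SNAP-549-labelled MS2 coat protein, from 0.7 or 1.5 nM to 3 µM, was applied in Tris-HCl pH 7.5 buffer with KCl, MgCl2, BSA, DTT, tRNA and Tween-20. Each step lasted 0.8–1.5 h at the bottom of the series and 10–20 min at the top. Normalised cluster fluorescence was curve-fitted, giving apparent KD as the per-design median over clusters.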

[1] = Eterna round: R95, input ligand: microRNA oligo, concentration not stated
[2] = input ligand: microRNA oligo, concentration not stated
[3] = Eterna round: R95, input ligand: FMN 200 uM
[4] = Eterna round: R95, input ligand: none

Sequence: UAUUAAACAAGCAGGUCCCACAUGAGGAUCACCCAUGUGCUCGUCUUAUAAGGUACUGUGAUGAAAGUUACGGUACC [Elimod 17 - Jieux - Sensor, turn-off variant 1] (Eterna round: R97, puzzle: Sensor, turn-off variant 1)
- apparent KD of MS2 coat protein (input ligand: FMN 200 uM): 36.4 nM
- apparent KD of MS2 coat protein (input ligand: none): 46.2 nM

Sequence: UGGUAGUGAGGAUAUCCAAUAUAUGACAUGAGGAUCACCCAUGUUUCCACUCGUACCUCCGGAGAAGGCACAUGGU [Ex5 #54] (Eterna round: R97, puzzle: Exclusion 5)
- apparent KD of MS2 coat protein (input ligand: FMN 200 uM): 67.6 nM
- apparent KD of MS2 coat protein (input ligand: none): 61.9 nM

Sequence: ACAUGUUGUCCAUGAUAUUACAUGAGGAUCACCCAUGUUAUUGUGAUUUUGAUGUGUAAGUUUGUUGCUCGUCUUAU [JR_STOV1_Sub063] (Eterna round: R97, puzzle: Sensor, turn-off variant 1)
- apparent KD of MS2 coat protein (input ligand: FMN 200 uM): 29.8 nM
- apparent KD of MS2 coat protein (input ligand: none): 29.4 nM

Sequence: GUUUCACAUGAGGAUCACCCAUGUGAGGAUAUGCAUUUGUUAACCGUAGUUAAUAGAUGCAGAAGGCGCGUGAU [JRxlusion 5 - Jieux - Exclusion 1] (Eterna round: R97, puzzle: Exclusion 1)
- apparent KD of MS2 coat protein (input ligand: FMN 200 uM): 69.8 nM
- apparent KD of MS2 coat protein (input ligand: none): 65 nM

Sequence: UGUGCGUAUGUGAGGAUAUGCUGGUCCUUGGCUCGGCAGAAGGCACAUGAGGAUCACCCAUGUGGUGUCGUACA [salish99_Bmod_ex4_071] (puzzle: Brourd's mod of Exclusion 4)
- apparent KD of MS2 coat protein [1]: 158 nM

Sequence: CUUCUCUCAUGGAAUCCUGACAUGAGGAUCACCCAUGUUGCUGAGGAUAUCCAGCGCUACGGCGCGGAGAAGGCGGCUCUUAAA [Enties] (Eterna round: R96, puzzle: Exclusion NG 3)
- apparent KD of MS2 coat protein (input ligand: FMN 200 uM): 12.9 nM
- apparent KD of MS2 coat protein [2]: 10 nM
- apparent KD of MS2 coat protein (input ligand: none): 17.2 nM

Sequence: GUGCAAUGAGGAUAUACGUUGGUGAACAUCUGUGUGCUCCUACAUGAGGAUCACCCAUGUAGAAGGCAUGUCAC [LRO-Excl2-18] (Eterna round: R96, puzzle: Exclusion 2)
- apparent KD of MS2 coat protein (input ligand: FMN 200 uM): 18.3 nM
- apparent KD of MS2 coat protein [2]: 10.8 nM
- apparent KD of MS2 coat protein (input ligand: none): 14.1 nM

Sequence: UCACGGGACUGAGGAUAUACAUGAACCAUGUUUGUAGAAGGCAGAAGGUUUGAUCAUACACUAAACAUGAGGAUCACCCAUGUU [JR_ExcNG1_Sub027] (Eterna round: R96, puzzle: Exclusion NG 1)
- apparent KD of MS2 coat protein (input ligand: FMN 200 uM): 21.1 nM
- apparent KD of MS2 coat protein [2]: 15.1 nM
- apparent KD of MS2 coat protein (input ligand: none): 25.1 nM

Sequence: GCCUUAUCUGUCAGGAUAUACAAUAAAAUUUUUUUGUAGAAGGGACAUGAGGAUCACCCAUGUACAUUACAUUG [alecazam22] (Eterna round: R97, puzzle: Brourd's mod of Exclusion 4)
- apparent KD of MS2 coat protein (input ligand: FMN 200 uM): 315 nM
- apparent KD of MS2 coat protein (input ligand: none): 49.7 nM

Sequence: GGUGAGCUAGGAUAUGCUUUGGGCUCGCUUUCCUUCGAUUUACUUGAGGAUCACCCAAGUAGAAGGAGCUUGCC [salish99_ex2_r4_035] (Eterna round: R97, puzzle: Exclusion 2)
- apparent KD of MS2 coat protein (input ligand: FMN 200 uM): 13.5 nM
- apparent KD of MS2 coat protein (input ligand: none): 12.9 nM

Sequence: AAACAGGGAGGAUAUACAUGAGGAUCACCCAUGUUCGAGCGUCCUUGAGCUACCUCAGGUAGAAGGCCCAAAAG [Qubeon] (Eterna round: R97, puzzle: Exclusion 3)
- apparent KD of MS2 coat protein (input ligand: FMN 200 uM): 151 nM
- apparent KD of MS2 coat protein (input ligand: none): 32.9 nM

Sequence: UUGGUUGUGGUAGGAUAUCCGUUGGAAACUGUUGGAGAAGGACCACAGUCACUGGGUCCUUGUUUGGUGGAGUGGAAGAACCAU [pwkr exNG1 F6.16] (Eterna round: R96, puzzle: Exclusion NG 1)
- apparent KD of MS2 coat protein (input ligand: FMN 200 uM): 453 nM
- apparent KD of MS2 coat protein [2]: 294 nM
- apparent KD of MS2 coat protein (input ligand: none): 329 nM

Sequence: UUUACAAGCUAUAGAUCCCACAUGAGGAUCACCCAUGUUGCUGCCGUGAGGUAGCUUUUAACUAUUGCUCGUCUUAU [JL TOV1 3.36] (Eterna round: R97, puzzle: Sensor, turn-off variant 1)
- apparent KD of MS2 coat protein (input ligand: FMN 200 uM): 150 nM
- apparent KD of MS2 coat protein (input ligand: none): 181 nM

Sequence: ACAUGAGGAUCACCCAUGUCAGGCGGGUCCACUCCGGCUGUUGAGGAUAUAGUCCGGUAUCCGCGCUAGAAGGUGAGGGCCGGC [Aenatbe mod 24] (Eterna round: R96, puzzle: Exclusion NG 3)
- apparent KD of MS2 coat protein (input ligand: FMN 200 uM): 20.6 nM
- apparent KD of MS2 coat protein [2]: 15.4 nM
- apparent KD of MS2 coat protein (input ligand: none): 19.9 nM

Sequence: AAUUAUUUUUGAGGAUAUCGUGGUGAAACACCACGAGAAGGCGAGAUAAACAUGAGGAUCACCCAUGUGAGCCUGAUGCUUAUG [Ex NG1 #50] (Eterna round: R96, puzzle: Exclusion NG 1)
- apparent KD of MS2 coat protein [2]: 18.1 nM

Sequence: GUUAUUAAUGUAGGAUAUGCAAGGCGAACCUAAGCAGAAGGACAUGAGGAUCACCCAUGUAUUGCGGUCUGCGUUCAGAUCGCU [salish99_ExNG1_r4_012] (Eterna round: R96, puzzle: Exclusion NG 1)
- apparent KD of MS2 coat protein (input ligand: FMN 200 uM): 39.9 nM
- apparent KD of MS2 coat protein [2]: 15.8 nM
- apparent KD of MS2 coat protein (input ligand: none): 19.4 nM

Sequence: UUCCUCUUUGUGAGGAUAUCGUCCGUUUUUUGUUACGAGAAGGCACAUGAGGAUCACCCAUGUUUUUUGUUUUU [JR_BMOE4_Sub076] (puzzle: Brourd's mod of Exclusion 4)
- apparent KD of MS2 coat protein [1]: 21.4 nM

Sequence: CUCGGACAUGAGGAUCACCCAUGUGAGGAUAUGAUGCGAUCGUCGAAAGACGAUAGCAUCAGAAGGUACAAAUG [Fiskers Ex 1 - 22] (Eterna round: R96, puzzle: Exclusion 1)
- apparent KD of MS2 coat protein (input ligand: FMN 200 uM): 60.2 nM
- apparent KD of MS2 coat protein [2]: 36.2 nM
- apparent KD of MS2 coat protein (input ligand: none): 50.3 nM

Sequence: AGUAGAUCUACGCUUGCGUGGAUCUGCAAUGCAGGUGUUACAUGAGGAUCACCCAUGUCCUCGUUUGCUCGUCUUAG [JL turnoff v2 99.11] (puzzle: Sensor v3, turn-off variant 2)
- apparent KD of MS2 coat protein [3]: 145 nM
- apparent KD of MS2 coat protein [1]: 508 nM
- apparent KD of MS2 coat protein [4]: 133 nM

Sequence: GGGUGACAUGAGGAUCACCCAUGUCAGGAUAUGAUACUAUGUACUUCGGUACAUAGUAUCAGAAGGGACAUCCC [Ex1-3: 16] (puzzle: Exclusion 1)
- apparent KD of MS2 coat protein [1]: 41.8 nM

Sequence: AAGAUGCGGGUAGGAUAUGGGAAUUAAUAAAGACCAGAAGGACUGGUCACACAACAUGAGGAUCACCCAUGUGUGUGUAGUGAA [exng1 ex1] (Eterna round: R96, puzzle: Exclusion NG 1)
- apparent KD of MS2 coat protein [2]: 9.2 nM

Sequence: UUUCUUGGGCAAGGAUAUCCUGUGCGGUUCCGGCUCGUGUCUGUCACAUGAGGAUCACCCAUGUGGGAGAAGGUGCCUGCGGUU [Design 83] (Eterna round: R96, puzzle: Exclusion NG 2)
- apparent KD of MS2 coat protein (input ligand: FMN 200 uM): 15.4 nM
- apparent KD of MS2 coat protein [2]: 10.7 nM
- apparent KD of MS2 coat protein (input ligand: none): 15.6 nM

Sequence: AACAGGUCAGGAUAUACAUGAGGAUCACCCAUGUAGACUUCUAGUCUACCGAGGCUGUGUAGAAGGGACCUGAA [Exclusion 3 (MOD4 of #98 Marzena11)] (Eterna round: R97, puzzle: Exclusion 3)
- apparent KD of MS2 coat protein (input ligand: FMN 200 uM): 175 nM
- apparent KD of MS2 coat protein (input ligand: none): 43.3 nM

Sequence: CCUCAGUAAGGAUAUCAGCUUAUAAAGUUGGUAAUGAGAGCUGAGAAGGUACAUGAGGAUCACCCAUGUUAGUU [JL Zatite mod 5] (puzzle: Exclusion 4)
- apparent KD of MS2 coat protein [1]: 20.9 nM

Sequence: GAGUGACAUGAGGAUCACCCAUGUGAGGAUAUCGGACGGACCAAAUUAACAACAAACGCGAGAAGGCACAUCGG [Exclusion 1 V19] (puzzle: Exclusion 1)
- apparent KD of MS2 coat protein [1]: 74.9 nM

Sequence: AAGGAUAGAGGAUAUACAUAGAUACAGAUUCAUGUAAUCCUACAUGAGGAUCACCCAUGUAGAAGGCUAUCCUA [Fiskers Ex 2 - 15] (puzzle: Exclusion 2)
- apparent KD of MS2 coat protein [1]: 14.5 nM

Sequence: AAGAAGAAGUAAGGAUAUGAAGAUUUGGUGAUAACAUGAGGAUCACCCAUGUGAAAACAAUAAGAUCAGAAGGUAUAAGAAGAA [AK ExNG2-2.1] (Eterna round: R96, puzzle: Exclusion NG 2)
- apparent KD of MS2 coat protein (input ligand: FMN 200 uM): 53.9 nM
- apparent KD of MS2 coat protein [2]: 42.1 nM
- apparent KD of MS2 coat protein (input ligand: none): 72.1 nM

Sequence: GUAAUCUUAGGAUAUUUACGGGUCGACAUGAGGAUCACCCAUGUACCCACGUAGGCCUGAGAAGAAGGAAGAUGAC [EX5 C.24] (Eterna round: R97, puzzle: Exclusion 5)
- apparent KD of MS2 coat protein (input ligand: FMN 200 uM): 22.1 nM
- apparent KD of MS2 coat protein (input ligand: none): 14.5 nM

Sequence: GUCCUGGACUAUCACAAGCACAUGAGGAUCACCCAUGUCAUGGGUAGAUCCAUAAAUAAAGAUACUGCUCGUCUUAU [Cac sensor turnoff var1 sub5] (Eterna round: R97, puzzle: Sensor, turn-off variant 1)
- apparent KD of MS2 coat protein (input ligand: FMN 200 uM): 177 nM
- apparent KD of MS2 coat protein (input ligand: none): 303 nM

Sequence: UGCGGUAGAGGAUAUACGUAGAAUUAGAUUCAUGUAAAACUACAUGAGGAUCACCCAUGUAGAAGGCUAUCGCU [JL-ex2-4.31 Eli mod] (Eterna round: R97, puzzle: Exclusion 2)
- apparent KD of MS2 coat protein (input ligand: FMN 200 uM): 102 nM
- apparent KD of MS2 coat protein (input ligand: none): 19.3 nM

Sequence: AAUAACAGAGGAUAUACUGUUUUAUGUGUUUAUUGUUUUGAACAUGAGGAUCACCCAUGUAGAAGGCUGAGUAA [JMF 39] (puzzle: Exclusion 2)
- apparent KD of MS2 coat protein [1]: 24.5 nM

Sequence: UCAAUUUUGCGAGGAUAUCGACCAUUCCUCUUUACAUGAGGAUCACCCAUGUUCUUUUUCUACAACGAGAAGGCGCUCAUAGUU [JR_ExcNG2_Sub063] (Eterna round: R96, puzzle: Exclusion NG 2)
- apparent KD of MS2 coat protein [2]: 56.2 nM

Sequence: UUCGGCGCAGGAUAUACAGUUCUGUGUUGAAUCGGCGCGGGACAUGAGGAUCACCCAUGUAGAAGGGUGUUGGG [-26.9, -23.2 kcal, A 22%] (Eterna round: R97, puzzle: Exclusion 2)
- apparent KD of MS2 coat protein (input ligand: FMN 200 uM): 220 nM
- apparent KD of MS2 coat protein (input ligand: none): 538 nM

Sequence: GCCGAAAGUGUGAGGAUAUACCUAUGGAUACAUAGGUAGAAGGCACAUGAGGAUCACCCAUGUUCCUAAUCGGC [Eli bmx4 4.18] (Eterna round: R97, puzzle: Brourd's mod of Exclusion 4)
- apparent KD of MS2 coat protein (input ligand: FMN 200 uM): 306 nM
- apparent KD of MS2 coat protein (input ligand: none): 103 nM

Sequence: GUAUAACUACACGGGCUCAACAUGAGGAUCACCCAUGUCUUAUACGCAAGCUUUUUGCUUGUCUUAUCUGUCCGUGA [Tibimaesan] (puzzle: Sensor v3, turn-off variant 1)
- apparent KD of MS2 coat protein [3]: 12.6 nM
- apparent KD of MS2 coat protein [1]: 11.9 nM
- apparent KD of MS2 coat protein [4]: 12.3 nM
